From the Immune Epitope Database (IEDB)

Assays:
[1] = molecular target: HLA-B*57:01; assay: IEDB peptide-MHC binding, purified MHC/competitive/fluorescence; filed as Kd, often an IC50 or EC50 that approximates it; ≥ and ≤ were set here for values at or beyond the usual limits of such assays
[2] = molecular target: HLA-A*23:01; assay: as above
[3] = molecular target: HLA-B*15:17; assay: as above
[4] = molecular target: HLA-B*39:01; assay: as above
[5] = molecular target: HLA-B*15:01; assay: as above
[6] = molecular target: HLA-B*27:03; assay: as above
[7] = molecular target: HLA-A*29:02; assay: as above
[8] = molecular target: HLA-A*02:16; assay: as above
[9] = molecular target: HLA-B*51:01; assay: as above
[10] = molecular target: HLA-A*02:03; assay: as above
[11] = molecular target: HLA-A*03:01; assay: as above
[12] = molecular target: HLA-A*69:01; assay: as above
[13] = molecular target: HLA-A*26:01; assay: as above
[14] = molecular target: HLA-A*24:03; assay: as above
[15] = molecular target: HLA-A*02:12; assay: as above
[16] = molecular target: HLA-B*18:01; assay: as above
[17] = molecular target: HLA-B*46:01; assay: as above
[18] = molecular target: HLA-A*02:01; assay: as above
[19] = molecular target: HLA-A*02:11; assay: as above
[20] = molecular target: HLA-A*02:19; assay: as above
[21] = molecular target: HLA-B*08:01; assay: IEDB peptide-MHC binding, purified MHC/competitive/fluorescence; ≥ and ≤ were set here for values at or beyond the usual limits of such assays; settings: source organism: Zaire ebolavirus
[22] = molecular target: HLA-A*24:02; assay: as above; settings: source organism: Zaire ebolavirus
[23] = molecular target: HLA-A*02:01; assay: as above; settings: source organism: Zaire ebolavirus
[24] = molecular target: HLA-A*68:02; assay: IEDB peptide-MHC binding, purified MHC/competitive/fluorescence; filed as Kd, often an IC50 or EC50 that approximates it; ≥ and ≤ were set here for values at or beyond the usual limits of such assays; settings: source organism: Burkholderia orbicola
[25] = molecular target: HLA-B*40:01; assay: IEDB peptide-MHC binding, purified MHC/direct/fluorescence; filed as Kd, often an IC50 or EC50 that approximates it; ≥ and ≤ were set here for values at or beyond the usual limits of such assays
[26] = molecular target: HLA-B*15:01; assay: as above
[27] = molecular target: HLA-B*27:05; assay: as above
[28] = molecular target: HLA-B*58:01; assay: as above
[29] = molecular target: HLA-B*44:02; assay: as above; settings: source organism: Influenza A virus (A/WSN/1933(H1N1))
[30] = molecular target: HLA-A*01:01; assay: as above
[31] = molecular target: HLA-B*07:02; assay: as above
[32] = molecular target: HLA-B*08:01; assay: as above; settings: source organism: Influenza A virus (A/WSN/1933(H1N1))
[33] = molecular target: HLA-A*24:02; assay: as above
[34] = molecular target: HLA-A*03:01; assay: as above
[35] = molecular target: HLA-B*46:01; assay: as above
[36] = molecular target: HLA-A*11:01; assay: as above
[37] = molecular target: HLA-B*15:09; assay: as above; settings: source organism: Influenza A virus(A/swine/Henan/8/2004(H9N2))
[38] = molecular target: HLA-A*69:01; assay: as above; settings: source organism: Influenza A virus (A/equine/Massachussetts/213/2003(H3N8))
[39] = molecular target: HLA-B*18:01; assay: as above; settings: source organism: Influenza A virus (A/equine/Massachussetts/213/2003(H3N8))
[40] = molecular target: HLA-A*02:01; assay: as above
[41] = molecular target: HLA-A*31:01; assay: as above; settings: source organism: Influenza A virus (A/equine/Massachussetts/213/2003(H3N8))
[42] = molecular target: HLA-B*15:01; assay: IEDB peptide-MHC binding, purified MHC/competitive/fluorescence; ≥ and ≤ were set here for values at or beyond the usual limits of such assays; settings: source organism: Zaire ebolavirus
[43] = molecular target: HLA-B*07:02; assay: as above; settings: source organism: Zaire ebolavirus
[44] = molecular target: HLA-A*03:01; assay: as above; settings: source organism: Zaire ebolavirus
[45] = molecular target: HLA-A*11:01; assay: as above; settings: source organism: Zaire ebolavirus
[46] = source organism: Brucella melitensis bv. 1 str. 16M
[47] = source organism: Burkholderia orbicola
[48] = source organism: Influenza A virus (A/WSN/1933(H1N1))
[49] = source organism: Influenza A virus (A/equine/Massachussetts/213/2003(H3N8))
[50] = source organism: Zaire ebolavirus

AVGVVCTGL
Kd [1, 46]: ≥ 20 µM | Kd [2, 46]: ≥ 20 µM | Kd [3, 46]: ≥ 20 µM | Kd [4, 46]: ≥ 20 µM | Kd [5, 46]: ≥ 20 µM | Kd [6, 46]: ≥ 20 µM | Kd [7, 46]: ≥ 20 µM | Kd [8, 46]: 0.273 µM | Kd [9, 46]: ≥ 20 µM | Kd [10, 46]: ≥ 20 µM | Kd [11, 46]: ≥ 20 µM | Kd [12, 46]: ≥ 20 µM | Kd [13, 46]: ≥ 20 µM | Kd [14, 46]: ≥ 20 µM | Kd [15, 46]: ≥ 20 µM | Kd [16, 46]: ≥ 20 µM | Kd [17, 46]: ≥ 20 µM | Kd [18, 46]: ≥ 20 µM | Kd [19, 46]: ≥ 20 µM | Kd [20, 46]: ≥ 20 µM

TNFLIKFLL
IC50 [21]: ≥ 523 µM | IC50 [22]: 3.2 µM | IC50 [23]: ≥ 181 µM

RIEQLYPFA
Kd [1, 47]: ≥ 20 µM | Kd [2, 47]: ≥ 20 µM | Kd [3, 47]: ≥ 20 µM | Kd [4, 47]: ≥ 20 µM | Kd [5, 47]: ≥ 20 µM | Kd [6, 47]: ≥ 20 µM | Kd [7, 47]: ≥ 20 µM | Kd [8, 47]: 0.292 µM | Kd [9, 47]: ≥ 20 µM | Kd [10, 47]: ≥ 20 µM | Kd [11, 47]: ≥ 20 µM | Kd [12, 47]: ≥ 20 µM | Kd [24]: ≥ 20 µM | Kd [13, 47]: ≥ 20 µM | Kd [14, 47]: ≥ 20 µM | Kd [15, 47]: ≥ 20 µM | Kd [16, 47]: ≥ 20 µM | Kd [17, 47]: ≥ 20 µM | Kd [18, 47]: ≥ 20 µM | Kd [19, 47]: ≥ 20 µM | Kd [20, 47]: ≥ 20 µM

NLEPGTFDL
Kd [25, 48]: ≥ 20 µM | Kd [26, 48]: ≥ 20 µM | Kd [27, 48]: ≥ 20 µM | Kd [28, 48]: ≥ 20 µM | Kd [29]: ≥ 20 µM | Kd [30, 48]: ≥ 20 µM | Kd [31, 48]: ≥ 20 µM | Kd [32]: ≥ 20 µM | Kd [33, 48]: ≥ 20 µM | Kd [34, 48]: ≥ 20 µM | Kd [35, 48]: ≥ 20 µM | Kd [36, 48]: ≥ 20 µM

ILKGKFQTA
Kd [25, 49]: ≥ 20 µM | Kd ([26]; source organism: Influenza A virus (A/Puerto Rico/8/34/Mount Sinai(H1N1))): 5.72 µM | Kd [27, 49]: ≥ 20 µM | Kd [28, 49]: ≥ 20 µM | Kd [30, 49]: ≥ 20 µM | Kd [31, 49]: ≥ 20 µM | Kd [37]: ≥ 20 µM | Kd [33, 49]: ≥ 20 µM | Kd [34, 49]: ≥ 20 µM | Kd [38]: ≥ 20 µM | Kd [39]: ≥ 20 µM | Kd [35, 49]: ≥ 20 µM | Kd [40, 49]: ≥ 20 µM | Kd [41]: ≥ 20 µM | Kd [36, 49]: ≥ 20 µM

NHKNKFMAI
IC50 [21]: 15.9 µM | IC50 [22]: 19.4 µM

RLMRTNFLI
Kd [40, 50]: 0.0175 µM | IC50 [42]: 11.4 µM | IC50 [43]: 15.9 µM | IC50 [21]: 58.7 µM | IC50 [22]: 0.0213 µM | IC50 [44]: 3.42 µM | IC50 [23]: 0.514 µM | IC50 [45]: 3.95 µM | Kd [13, 50]: ≥ 20 µM | Kd [16, 50]: ≥ 20 µM | Kd [17, 50]: ≥ 20 µM
